T1: ADAMTS-5 lacking the C-terminal thrombospondin domain (Homo sapiens, UniProt Q9UNA0)
T1 chain: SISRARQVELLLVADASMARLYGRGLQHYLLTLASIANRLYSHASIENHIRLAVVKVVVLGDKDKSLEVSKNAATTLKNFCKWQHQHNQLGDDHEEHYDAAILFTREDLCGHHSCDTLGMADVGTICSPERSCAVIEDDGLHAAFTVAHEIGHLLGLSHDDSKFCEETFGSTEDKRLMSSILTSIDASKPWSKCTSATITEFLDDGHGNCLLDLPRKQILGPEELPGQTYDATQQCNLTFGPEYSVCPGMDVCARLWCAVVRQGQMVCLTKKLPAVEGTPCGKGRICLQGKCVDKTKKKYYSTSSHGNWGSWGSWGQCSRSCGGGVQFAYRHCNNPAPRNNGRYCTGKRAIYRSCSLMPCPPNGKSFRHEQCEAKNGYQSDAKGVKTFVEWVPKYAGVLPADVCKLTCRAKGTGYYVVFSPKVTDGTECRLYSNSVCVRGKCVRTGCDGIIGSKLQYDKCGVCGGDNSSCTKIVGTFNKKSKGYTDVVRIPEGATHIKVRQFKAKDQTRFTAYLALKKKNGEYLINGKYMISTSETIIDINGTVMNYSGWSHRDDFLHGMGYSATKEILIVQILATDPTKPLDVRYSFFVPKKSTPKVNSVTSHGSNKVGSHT

T2: MMP-1 catalytic domain (Homo sapiens, UniProt P03956)
T2 chain: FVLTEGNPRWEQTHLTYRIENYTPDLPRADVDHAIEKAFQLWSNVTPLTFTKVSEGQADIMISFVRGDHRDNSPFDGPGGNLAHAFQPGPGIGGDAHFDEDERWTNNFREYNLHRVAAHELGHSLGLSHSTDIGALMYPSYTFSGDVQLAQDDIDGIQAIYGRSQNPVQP

B1: TIMP-3 (protein)
chain: CTCSPSHPQDAFCNSDIVIRAKVVGKKLVKEGPFGTLVYTIKQMKMYRGFTKMPHVQYIHTEASESLCGLKLEVNKYQYLLTGRVYDGKMYTGLCNFVERWDQLTLSQRKGLNYRYHLGCNCKIKSCYYLPCFVTSKNECLWTDMLSNFGYPGYQSKHYACIRQKGGYCSWYRGWAPPDKSIINATDP
modifications: suramin (0.05 µg/ml)
B2: TIMP-3 (protein)
chain: CTCSPSHPQDAFCNSDIVIRAKVVGKKLVKEGPFGTLVYTIKQMKMYRGFTKMPHVQYIHTEASESLCGLKLEVNKYQYLLTGRVYDGKMYTGLCNFVERWDQLTLSQRKGLNYRYHLGCNCKIKSCYYLPCFVTSKNECLWTDMLSNFGYPGYQSKHYACIRQKGGYCSWYRGWAPPDKSIINATDP

Legend:
Assay in all cases: inhibition of fluorescent peptide substrate cleavage, tight binding equation
[1] = biological target: T1, ADAMTS-5 lacking the C-terminal …
MMP-1 catalytic domain = biological target: T2, MMP-1 catalytic domain
MMP-3 catalytic domain = MMP-3 catalytic domain (Homo sapiens, UniProt P08254)
MMP-3 catalytic domain, sequence (P08254 100-272): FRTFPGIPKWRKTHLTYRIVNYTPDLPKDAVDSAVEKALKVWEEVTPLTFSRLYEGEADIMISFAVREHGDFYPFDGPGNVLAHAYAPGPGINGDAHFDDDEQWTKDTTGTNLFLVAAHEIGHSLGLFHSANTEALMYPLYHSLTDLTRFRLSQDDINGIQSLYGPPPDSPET

| Binder | Ki [1] [nM] | Ki (MMP-1 catalytic domain) [nM] | Ki (MMP-3 catalytic domain) [nM] |
| --- | --- | --- | --- |
| B1 | 1.6 | 0.65 | 0.76 |
| B2 | 2.03 | 0.66 | 1.14 |

— PMC5588548 (2017)
